Data as given in publication PMC7367873, “Dissecting the sequence determinants for dephosphorylation by the catalytic subunits of phosphatases PP1 and PP2A” (Nature Communications, 2020).

B1: PPP1R12A (protein, UniProt O14974 1-1030, looked up)
Protein phosphatase 1 …: MKMADAKQKRNEQLKRWIGSETDLEPPVVKRQKTKVKFDDGAVFLAACSSGDTDEVLKLLHRGADINYANVDGLTALHQACIDDNVDMVKFLVENGANINQPDNEGWIPLHAAASCGYLDIAEFLIGQGAHVGAVNSEGDTPLDIAEEEAMEELLQNEVNRQGVDIEAARKEEERIMLRDARQWLNSGHINDVRHAKSGGTALHVAAAKGYTEVLKLLIQAGYDVNIKDYDGWTPLHAAAHWGKEEACRILVDNLCDMEMVNKVGQTAFDVADEDILGYLEELQKKQNLLHSEKRDKKSPLIESTANMDNNQSQKTFKNKETLIIEPEKNASRIESLEQEKVDEEEEGKKDESSCSSEEDEEDDSESEAETDKTKPLASVTNANTSSTQAAPVAVTTPTVSSGQATPTSPIKKFPTTATKISPKEEERKDESPATWRLGLRKTGSYGALAEITASKEGQKEKDTAGVTRSASSPRLSSSLDNKEKEKDSKGTRLAYVAPTIPRRLASTSDIEEKENRDSSSLRTSSSYTRRKWEDDLKKNSSVNEGSTYHKSCSFGRRQDDLISSSVPSTTSTPTVTSAAGLQKSLLSSTSTTTKITTGSSSAGTQSSTSNRLWAEDSTEKEKDSVPTAVTIPVAPTVVNAAASTTTLTTTTAGTVSSTTEVRERRRSYLTPVRDEESESQRKARSRQARQSRRSTQGVTLTDLQEAEKTIGRSRSTRTREQENEEKEKEEKEKQDKEKQEEKKESETSREDEYKQKYSRTYDETYQRYRPVSTSSSTTPSSSLSTMSSSLYASSQLNRPNSLVGITSAYSRGITKENEREGEKREEEKEGEDKSQPKSIRERRRPREKRRSTGVSFWTQDSDENEQEQQSDTEEGSNKKETQTDSISRYETSSTSAGDRYDSLLGRSGSYSYLEERKPYSSRLEKDDSTDFKKLYEQILAENEKLKAQLHDTNMELTDLKLQLEKATQRQERFADRSLLEMEKRERRALERRISEMEEELKMLPDLKADNQRLKDENGALIRVISKLSK
B2: RHPN2 (protein, UniProt Q8IUC4 1-686, looked up)
Rhophilin-2: MTDALLPAAPQPLEKENDGYFRKGCNPLAQTGRSKLQNQRAALNQQILKAVRMRTGAENLLKVATNSKVREQVRLELSFVNSDLQMLKEELEGLNISVGVYQNTEEAFTIPLIPLGLKETKDVDFAVVLKDFILEHYSEDGYLYEDEIADLMDLRQACRTPSRDEAGVELLMTYFIQLGFVESRFFPPTRQMGLLFTWYDSLTGVPVSQQNLLLEKASVLFNTGALYTQIGTRCDRQTQAGLESAIDAFQRAAGVLNYLKDTFTHTPSYDMSPAMLSVLVKMMLAQAQESVFEKISLPGIRNEFFMLVKVAQEAAKVGEVYQQLHAAMSQAPVKENIPYSWASLACVKAHHYAALAHYFTAILLIDHQVKPGTDLDHQEKCLSQLYDHMPEGLTPLATLKNDQQRRQLGKSHLRRAMAHHEESVREASLCKKLRSIEVLQKVLCAAQERSRLTYAQHQEEDDLLNLIDAPSVVAKTEQEVDIILPQFSKLTVTDFFQKLGPLSVFSANKRWTPPRSIRFTAEEGDLGFTLRGNAPVQVHFLDPYCSASVAGAREGDYIVSIQLVDCKWLTLSEVMKLLKSFGEDEIEMKVVSLLDSTSSMHNKSATYSVGMQKTYSMICLAIDDDDKTDKTKKISKKLSFLSWGTNKNRQKSASTLCLPSVGAARPQVKKKLPSPFSLLNSDSSWY
B3: CCT2 (protein, UniProt P78371 2-535, looked up)
T-complex protein 1 subunit …: ASLSLAPVNIFKAGADEERAETARLTSFIGAIAIGDLVKSTLGPKGMDKILLSSGRDASLMVTNDGATILKNIGVDNPAAKVLVDMSRVQDDEVGDGTTSVTVLAAELLREAESLIAKKIHPQTIIAGWREATKAAREALLSSAVDHGSDEVKFRQDLMNIAGTTLSSKLLTHHKDHFTKLAVEAVLRLKGSGNLEAIHIIKKLGGSLADSYLDEGFLLDKKIGVNQPKRIENAKILIANTGMDTDKIKIFGSRVRVDSTAKVAEIEHAEKEKMKEKVERILKHGINCFINRQLIYNYPEQLFGAAGVMAIEHADFAGVERLALVTGGEIASTFDHPELVKLGSCKLIEEVMIGEDKLIHFSGVALGEACTIVLRGATQQILDEAERSLHDALCVLAQTVKDSRTVYGGGCSEMLMAHAVTQLANRTPGKEAVAMESYAKALRMLPTIIADNAGYDSADLVAQLRAAHSEGNTTAGLDMREGTIGDMAILGITESFQVKRQVLLSAAEAAEVILRVDNIIKAAPRKRVPDHHPC
B4: KIF5B (protein, UniProt P33176 2-963, looked up)
Kinesin-1 heavy chain: ADLAECNIKVMCRFRPLNESEVNRGDKYIAKFQGEDTVVIASKPYAFDRVFQSSTSQEQVYNDCAKKIVKDVLEGYNGTIFAYGQTSSGKTHTMEGKLHDPEGMGIIPRIVQDIFNYIYSMDENLEFHIKVSYFEIYLDKIRDLLDVSKTNLSVHEDKNRVPYVKGCTERFVCSPDEVMDTIDEGKSNRHVAVTNMNEHSSRSHSIFLINVKQENTQTEQKLSGKLYLVDLAGSEKVSKTGAEGAVLDEAKNINKSLSALGNVISALAEGSTYVPYRDSKMTRILQDSLGGNCRTTIVICCSPSSYNESETKSTLLFGQRAKTIKNTVCVNVELTAEQWKKKYEKEKEKNKILRNTIQWLENELNRWRNGETVPIDEQFDKEKANLEAFTVDKDITLTNDKPATAIGVIGNFTDAERRKCEEEIAKLYKQLDDKDEEINQQSQLVEKLKTQMLDQEELLASTRRDQDNMQAELNRLQAENDASKEEVKEVLQALEELAVNYDQKSQEVEDKTKEYELLSDELNQKSATLASIDAELQKLKEMTNHQKKRAAEMMASLLKDLAEIGIAVGNNDVKQPEGTGMIDEEFTVARLYISKMKSEVKTMVKRCKQLESTQTESNKKMEENEKELAACQLRISQHEAKIKSLTEYLQNVEQKKRQLEESVDALSEELVQLRAQEKVHEMEKEHLNKVQTANEVKQAVEQQIQSHRETHQKQISSLRDEVEAKAKLITDLQDQNQKMMLEQERLRVEHEKLKATDQEKSRKLHELTVMQDRREQARQDLKGLEETVAKELQTLHNLRKLFVQDLATRVKKSAEIDSDDTGGSAAQKQKISFLENNLEQLTKVHKQLVRDNADLRCELPKLEKRLRATAERVKALESALKEAKENASRDRKRYQQEVDRIKEAVRSKNMARRGHSAQIAKPIRPGQHPAASPTHPSAIRGGGAFVQNSQPVAVRGGGGKQV

Experiments:
GFP-14-3-3β = GFP-14-3-3β co-IP with LC-MS/MS, untreated GFP-14-3-3β versus GFP control (14-3-3 interactome); format: binding, human; conditions: untreated vs GFP; LFQ intensities, replicates 1-3
[1] = tested on: GFP-14-3-3β and its binding proteins; test: GFP-14-3-3β co-IP with LC-MS/MS label-free quantification, untreated versus PP1c-treated; parameters: species or system human; conditions: PP1 vs untreated; LFQ intensities, replicates 1-3

Molecule | Difference (log2), untreated vs GFP (GFP-14-3-3β) | Difference (log2), PP1 vs untreated [1]
B1 | 2.126 log2 | -1.93 log2
B2 | 5.43 log2 | -1.815 log2
B3 | 0.06414 log2 | -1.71 log2
B4 | 3.573 log2 | -1.944 log2
